Measured values from article PMC5851525, “Quantitative analysis of the impact of a human pathogenic mutation on the CCT5 chaperonin subunit using a proxy archaeal ortholog^” (Biochemistry and Biophysics Reports, 2017).

Columns and labels:
Pf-CD1 [1] = target: T1, Pf-CD1 (Pyrococcus furiosus, UniProt Q8TZL6, DEL/LAST/OF/RESIDUES); experiment: isothermal titration calorimetry, one set of sites model; assay type: binding
T1 construct: gene PF1974; C-terminal deletion (last 22 residues of Pf-Cpn removed); expressed in E. coli BL21(DE3) from pET33b; homo-hexadecamer (two octameric rings)
T1 sequence (Q8TZL6 1-527): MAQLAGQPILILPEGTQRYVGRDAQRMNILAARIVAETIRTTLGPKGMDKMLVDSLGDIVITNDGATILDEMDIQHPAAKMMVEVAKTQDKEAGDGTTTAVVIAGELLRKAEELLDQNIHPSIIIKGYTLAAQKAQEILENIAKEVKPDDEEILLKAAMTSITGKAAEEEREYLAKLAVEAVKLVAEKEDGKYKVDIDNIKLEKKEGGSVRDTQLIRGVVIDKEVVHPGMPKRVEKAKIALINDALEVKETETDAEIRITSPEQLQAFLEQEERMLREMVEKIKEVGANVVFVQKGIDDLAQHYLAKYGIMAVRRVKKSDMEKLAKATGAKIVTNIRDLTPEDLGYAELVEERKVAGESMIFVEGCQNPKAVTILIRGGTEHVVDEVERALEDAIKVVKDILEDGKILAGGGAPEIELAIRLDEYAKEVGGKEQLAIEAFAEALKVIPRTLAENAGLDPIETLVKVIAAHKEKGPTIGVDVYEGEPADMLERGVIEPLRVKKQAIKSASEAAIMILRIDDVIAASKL
Excerpt: (§1) isothermal titration calorimetry, one set of sites model on Pf-CD1

Pf-CD1 [2] = target: T2, Pf-CD1 (Pyrococcus furiosus, UniProt Q8TZL6, I138R); experiment: as above; assay type: binding
T2 construct: gene PF1974; C-terminal deletion (last 22 residues of Pf-Cpn removed); expressed in E. coli BL21(DE3) from pET33b; homo-hexadecamer (two octameric rings)
Excerpt: as §1

Pf-CD1 [3] = target: T3, Pf-CD1 (Pyrococcus furiosus, UniProt Q8TZL6, I138H); experiment: as above; assay type: binding
T3 construct: gene PF1974; C-terminal deletion (last 22 residues of Pf-Cpn removed); expressed in E. coli BL21(DE3) from pET33b; homo-hexadecamer (two octameric rings)
Excerpt: as §1

[4] = target: Pf-CD1 Ile138Arg (Pyrococcus furiosus); experiment: ITC; dilution experiment, 18 successive injections, 25 °C; fit to a two-state hexadecamer-monomer equilibrium (hexadecamer to monomers); parameters per subunit
[5] = target: Pf-CD1 Ile138His (Pyrococcus furiosus); experiment: as above
[6] = target: Pf-CD1, Pyrococcus furiosus chaperonin subunit (Pf-Cpn) with the last 22 amino acids deleted (Pyrococcus furiosus); experiment: as above

**Q.** `Nc1ncnc2c1ncn2[C@@H]1O[C@H](COP(=O)(O)OP(=O)(O)OP(=O)(O)O)[C@@H](O)[C@H]1O` [ATP] was tested. Which Kd (Pf-CD1 [1]) did it give?
**A.** The Kd was 320 ± 50 nM.

**Q.** And the Kd (Pf-CD1 [2])?
**A.** The Kd was 200 ± 10 nM.

**Q.** And the Kd (Pf-CD1 [3])?
**A.** Its Kd is 300 ± 20 nM.

**Q.** Pf-CD1 Ile138Arg (domain or fragment) was tested. Which Kd [4] did it give?
**A.** The Kd was 100 nM.

**Q.** And the dH of dissociation (∆Hd) [4]?
**A.** Its dH of dissociation (∆Hd) is -49 kcal/mol.

**Q.** And the stoichiometry N [4]?
**A.** The stoichiometry N was 16.

**Q.** Which results are given for Pf-CD1 Ile138His (domain or fragment)?
**A.** Kd [5]: 430 nM; dH of dissociation (∆Hd) [5]: -250 kcal/mol; stoichiometry N [5]: 16

**Q.** Which results are given for “Pf-CD1, Pyrococcus furiosus chaperonin subunit (Pf-Cpn) with the last 22 amino acids deleted (domain or fragment)”?
**A.** Kd [6]: 310 nM; dH of dissociation (∆Hd) [6]: -350 kcal/mol; stoichiometry N [6]: 16
